Measurements from patent US20250121002A1 (NOILE IMMUNE BIOTECH, published 2025).

Target: T1, recombinant EGFRviii protein (UniProt P00533 25-645)
T1 construct: EGFRviii is a deletion variant of it; The construct is not described
Assay: flow cytometry; CAR-T cells stained with recombinant EGFRviii protein
Source text: CytoFLEX S (manufactured by Beckman Coulter, Inc.) was used as the flow cytometer, and FlowJo software (manufactured by Tree Star, Inc.) was used for data analysis.

Binder | flow cytometer measurement result (percent of cells stained with recombinant EGFRviii protein) [%]
third generation anti-EGFRviiiCAR with scFv S#026 VL25VH (SG) of the 1B10-1A12 clone, on PRIME EGFRviii CAR-T cells (other, also called PRIME EGFRviii CAR-T cells based on the 1B10-1A12 clone; not shown: rest of the third generation CAR: human CD8 transmembrane region and human CD28-4-1BB-CD3zeta intracellular signal trans) DVVMTQTPLSLPVSLEDQASISCRSSQSLVHSSGKTYLQWYLQKPGQSPKLLIYSVSNRFSGVPDRFSGSGSGRDFTLKISRVEAEDLGVYFCSQSTHVPWTFGGGTKLEIKSSADDAKKDAAKKDDAKKDDAKKDGQVTLKESGPGILQPSQTLSLTCSFSGFSLSTSGMGVSWIRQPSGKGLEWLAHIFWDDDKRYNPSLKSRLTISKDTSTNQVFLKITSVDTADTATYYCARNYGFDVWGAGTTVTVSS | 32.4
anti-EGFRviiiCAR with VL25VH (SG) type scFv based on the 2H9-1B5 clone, on PRIME EGFRviii CAR-T cells (other, also called PRIME EGFRviii CAR-T cells based on the 2H9-1B5 clone; not shown: rest of the CAR, produced 'in a manner similar to that based on the 1B10-1A12 clone' (third generation: CD8 transmembran)) DVVVTQTPLSLPVSLEDQASISCRSSRSLVHSSGKTYLQWYLQKPGQSPKLLIYSVSNRFSGVPDRFSGSGSGRDFTLKINRVEAEDLGVYFCSQSTHVPWTFGGGTKLEIKSSADDAKKDAAKKDDAKKDDAKKDGQVTLKESGPGILQPSQTLSLTCSLSGFSLSTSGMGVSWIRQPSGKGLEWLAHIYWDDDTRYNPSLKRRLTISKDTSTNQVFLKITSVDTADTATYYCARNYGFDVWGAGTTVTVSS | 3.6
anti-EGFRviiiCAR with VL25VH (SG) type scFv based on the 3C2-1B10 clone, on PRIME EGFRviii CAR-T cells (other, also called PRIME EGFRviii CAR-T cells based on the 3C2-1B10 clone; not shown: rest of the CAR, produced 'in a manner similar to that based on the 1B10-1A12 clone' (third generation: CD8 transmembran)) DVVVTQTPLSLPVSLGDQASISCRSSQSLVHSSGITYLQWYLQKPGQSPKLLIYKVSTRFSGVPDRFSGSGSGTDFTLRISRVEAEELGVYFCSQSTHIPWTFGGGTKLEIKSSADDAKKDAAKKDDAKKDDAKKDGQVTLKESGPGILQPSQTLSLACSFSGFSLSTSGMGVSWIRQPSGKGLEWLAHIYWDDDRRYNPSLKSRLTISRDTSSNQVFLRITSVDTADTATYYCARNYGFDVWGAGTTVTVSS | 1.4
